{"source": "paper PMC3795721", "about": "“Screening for Protein-DNA Interactions by Automatable DNA-Protein Interaction ELISA”"}
{"biological_target": "T1, AtbZIP63 (Arabidopsis thaliana, UniProt B9DGI8 1-314)", "T1 sequence": "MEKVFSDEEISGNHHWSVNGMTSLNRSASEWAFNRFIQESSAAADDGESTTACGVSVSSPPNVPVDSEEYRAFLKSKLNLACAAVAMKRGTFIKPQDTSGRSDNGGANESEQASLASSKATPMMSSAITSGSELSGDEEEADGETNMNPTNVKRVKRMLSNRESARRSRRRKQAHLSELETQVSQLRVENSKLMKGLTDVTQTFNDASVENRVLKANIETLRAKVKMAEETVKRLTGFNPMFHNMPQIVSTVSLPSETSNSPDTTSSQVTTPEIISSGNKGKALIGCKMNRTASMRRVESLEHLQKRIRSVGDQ", "assay": "DPI-ELISA; DPI-ELISA, streptavidin 384-well plate, 1-2 pmol biotinylated dsDNA per well, crude native E. coli extract, anti-His detection; buffer as in Brand et al. [46],; high values mean tight binding", "conditions": "tags: C-terminal His (pET-DEST42); chain copies: 2; label: 5' biotin on forward strand"}
{"binder": "202 (dsDNA) DNA 1: AAAAAAGATTGACTCGTCTTACTCGAAAAA DNA 2: TTTTTCGAGTAAGACGAGTCAATCTTTTTT", "binding signal": "2.68 relative normalized absorbance"}
{"binder": "31 (dsDNA) DNA 1: AAAAAATCCACGACTCAGCAGCTCTTAAAA DNA 2: TTTTAAGAGCTGCTGAGTCGTGGATTTTTT", "binding signal": "2.32 relative normalized absorbance"}
{"binder": "109 (dsDNA) DNA 1: AAAAAATACGTCTACGTGGTTGTCGTAAAA DNA 2: TTTTACGACAACCACGTAGACGTATTTTTT", "binding signal": "2.98 relative normalized absorbance"}
{"binder": "276 (dsDNA) DNA 1: AAAAAACATCGCTGTCGTTGACGTTGAAAA DNA 2: TTTTCAACGTCAACGACAGCGATGTTTTTT", "binding signal": "2.02 relative normalized absorbance"}
{"binder": "233 (dsDNA) DNA 1: AAAAAAGGTCCAGTCCACGTCATCAGAAAA DNA 2: TTTTCTGATGACGTGGACTGGACCTTTTTT", "binding signal": "2.57 relative normalized absorbance"}
{"binder": "246 (dsDNA) DNA 1: AAAAAACTGACCGTCAGCGCCCACGCAAAA DNA 2: TTTTGCGTGGGCGCTGACGGTCAGTTTTTT", "binding signal": "1.96 relative normalized absorbance"}
{"binder": "259 (dsDNA) DNA 1: AAAAAAGTAGGTGCTGATGCTGGCCGAAAA DNA 2: TTTTCGGCCAGCATCAGCACCTACTTTTTT", "binding signal": "1.92 relative normalized absorbance"}
{"binder": "294 (dsDNA) DNA 1: AAAAAACGTGCGCGTGCATGTCATCGAAAA DNA 2: TTTTCGATGACATGCACGCGCACGTTTTTT", "binding signal": "1.97 relative normalized absorbance"}
{"binder": "124 (dsDNA) DNA 1: AAAAAAACTCACGGCGTCACTATGGTAAAA DNA 2: TTTTACCATAGTGACGCCGTGAGTTTTTTT", "binding signal": "2.46 relative normalized absorbance"}
{"binder": "223 (dsDNA) DNA 1: AAAAAAGGCCACGGTAACCCCTTTTGAAAA DNA 2: TTTTCAAAAGGGGTTACCGTGGCCTTTTTT", "binding signal": "2.06 relative normalized absorbance"}
{"binder": "153 (dsDNA) DNA 1: AAAAAATGTATTCGTGTCCACTCCATAAAA DNA 2: TTTTATGGAGTGGACACGAATACATTTTTT", "binding signal": "1.89 relative normalized absorbance"}
{"binder": "64 (dsDNA) DNA 1: AAAAAATCGGGCCCCGTTAGCACTCTAAAA DNA 2: TTTTAGAGTGCTAACGGGGCCCGATTTTTT", "binding signal": "2.04 relative normalized absorbance"}
{"binder": "110 (dsDNA) DNA 1: AAAAAAGCGTAAGCCTTGACAGTCGTAAAA DNA 2: TTTTACGACTGTCAAGGCTTACGCTTTTTT", "binding signal": "1.94 relative normalized absorbance"}
{"binder": "44 (dsDNA) DNA 1: AAAAAAGTACATGCGTAGATAATGTTAAAA DNA 2: TTTTAACATTATCTACGCATGTACTTTTTT", "binding signal": "2.11 relative normalized absorbance"}
{"binder": "313 (dsDNA) DNA 1: AAAAAATCGCGAACGTACGTCCGCGGAAAA DNA 2: TTTTCCGCGGACGTACGTTCGCGATTTTTT", "binding signal": "2.62 relative normalized absorbance"}
{"binder": "270 (dsDNA) DNA 1: AAAAAACATGTCGCACCTGTACTAACAAAA DNA 2: TTTTGTTAGTACAGGTGCGACATGTTTTTT", "binding signal": "1.93 relative normalized absorbance"}
{"binder": "239 (dsDNA) DNA 1: AAAAAAGTCGTTACACGTATGCGTGCAAAA DNA 2: TTTTGCACGCATACGTGTAACGACTTTTTT", "binding signal": "2.62 relative normalized absorbance"}
{"binder": "287 (dsDNA) DNA 1: AAAAAACACGCCATTGACACTGGTAAAAAA DNA 2: TTTTTTACCAGTGTCAATGGCGTGTTTTTT", "binding signal": "1.99 relative normalized absorbance"}
{"binder": "108 (dsDNA) DNA 1: AAAAAAGGCGTCTGACTGTAACTCGTAAAA DNA 2: TTTTACGAGTTACAGTCAGACGCCTTTTTT", "binding signal": "2.54 relative normalized absorbance"}
{"biological_target": "T2, AtTIFY1 (Arabidopsis thaliana, UniProt Q9LRH6 1-309)", "T2 sequence": "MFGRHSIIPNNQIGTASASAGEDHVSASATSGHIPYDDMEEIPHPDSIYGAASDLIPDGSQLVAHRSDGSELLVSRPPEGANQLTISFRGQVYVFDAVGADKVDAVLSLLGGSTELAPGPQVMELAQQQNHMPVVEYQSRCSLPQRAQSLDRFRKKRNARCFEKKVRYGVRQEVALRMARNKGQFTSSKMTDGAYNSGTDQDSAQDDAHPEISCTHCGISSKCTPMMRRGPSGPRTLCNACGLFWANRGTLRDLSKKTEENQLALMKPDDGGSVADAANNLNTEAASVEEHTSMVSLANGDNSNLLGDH", "assay": "DPI-ELISA; DPI-ELISA, streptavidin 384-well plate, 1-2 pmol biotinylated dsDNA per well, crude native E. coli extract, anti-His detection; buffer as in Brand et al. [46],; high values mean tight binding", "conditions": "tags: C-terminal His (pET-DEST42); label: 5' biotin on forward strand"}
{"binder": "32 (dsDNA) DNA 1: AAAAAACCTACGATGGTTCTGATCTTAAAA DNA 2: TTTTAAGATCAGAACCATCGTAGGTTTTTT", "binding signal": "1.8 relative normalized absorbance"}
{"binder": "201 (dsDNA) DNA 1: AAAAAAGATCTAGGCCTTGGGACTCAAAAA DNA 2: TTTTTGAGTCCCAAGGCCTAGATCTTTTTT", "binding signal": "1.81 relative normalized absorbance"}
{"binder": "234 (dsDNA) DNA 1: AAAAAAGGTCTGGACGATCACCGGGAAAAA DNA 2: TTTTTCCCGGTGATCGTCCAGACCTTTTTT", "binding signal": "1.7 relative normalized absorbance"}
{"binder": "282 (dsDNA) DNA 1: AAAAAACAGGCCGATTCCGATCCCGGAAAA DNA 2: TTTTCCGGGATCGGAATCGGCCTGTTTTTT", "binding signal": "1.83 relative normalized absorbance"}
{"biological_target": "WRKY33 cDBD (Arabidopsis thaliana, UniProt Q8S8P5 345-449)", "sequence (Q8S8P5 other isoform, or with tags, fused parts or gaps)": "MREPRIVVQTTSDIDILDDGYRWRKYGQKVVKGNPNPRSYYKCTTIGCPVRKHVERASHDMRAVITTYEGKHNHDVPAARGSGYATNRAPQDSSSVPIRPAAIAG", "assay": "DPI-ELISA; DPI-ELISA, streptavidin 384-well plate, 1-2 pmol biotinylated dsDNA per well, crude native E. coli extract, anti-His detection; buffer as in Brand et al. [46],; high values mean tight binding", "conditions": "tags: C-terminal His (pET-DEST42); label: 5' biotin on forward strand"}
{"binder": "202 (dsDNA) DNA 1: AAAAAAGATTGACTCGTCTTACTCGAAAAA DNA 2: TTTTTCGAGTAAGACGAGTCAATCTTTTTT", "binding signal": "2.3 relative normalized absorbance"}
{"binder": "137 (dsDNA) DNA 1: AAAAAAACTCTAGGTCAATATTATTCAAAA DNA 2: TTTTGAATAATATTGACCTAGAGTTTTTTT", "binding signal": "2.3 relative normalized absorbance"}
{"binder": "276 (dsDNA) DNA 1: AAAAAACATCGCTGTCGTTGACGTTGAAAA DNA 2: TTTTCAACGTCAACGACAGCGATGTTTTTT", "binding signal": "2.34 relative normalized absorbance"}
{"binder": "233 (dsDNA) DNA 1: AAAAAAGGTCCAGTCCACGTCATCAGAAAA DNA 2: TTTTCTGATGACGTGGACTGGACCTTTTTT", "binding signal": "2.34 relative normalized absorbance"}
{"binder": "117 (dsDNA) DNA 1: AAAAAAATCAGCCTGACTCTGGGCGTAAAA DNA 2: TTTTACGCCCAGAGTCAGGCTGATTTTTTT", "binding signal": "2.01 relative normalized absorbance"}
{"binder": "173 (dsDNA) DNA 1: AAAAAATACATTTGACTTTGGGTTTCAAAA DNA 2: TTTTGAAACCCAAAGTCAAATGTATTTTTT", "binding signal": "2.31 relative normalized absorbance"}
{"binder": "246 (dsDNA) DNA 1: AAAAAACTGACCGTCAGCGCCCACGCAAAA DNA 2: TTTTGCGTGGGCGCTGACGGTCAGTTTTTT", "binding signal": "2.09 relative normalized absorbance"}
{"binder": "222 (dsDNA) DNA 1: AAAAAAGGCGGTCGTAGTTGTGGGAGAAAA DNA 2: TTTTCTCCCACAACTACGACCGCCTTTTTT", "binding signal": "2.35 relative normalized absorbance"}
{"binder": "97 (dsDNA) DNA 1: AAAAAAAGTTTGACCTTGGCGTTCGTAAAA DNA 2: TTTTACGAACGCCAAGGTCAAACTTTTTTT", "binding signal": "2.28 relative normalized absorbance"}
{"binder": "43 (dsDNA) DNA 1: AAAAAAAGGTCATTGCTGCTGGTGTTAAAA DNA 2: TTTTAACACCAGCAGCAATGACCTTTTTTT", "binding signal": "2.19 relative normalized absorbance"}
{"binder": "57 (dsDNA) DNA 1: AAAAAAAATTAGTCTCTTCGTCTCCCAAAA DNA 2: TTTTGGGAGACGAAGAGACTAATTTTTTTT", "binding signal": "2.01 relative normalized absorbance"}
{"binder": "54 (dsDNA) DNA 1: AAAAAAGTCCGCCCTTAATTCATATTAAAA DNA 2: TTTTAATATGAATTAAGGGCGGACTTTTTT", "binding signal": "2.35 relative normalized absorbance"}
{"binder": "88 (dsDNA) DNA 1: AAAAAATCAACCATTATGGTATTACTAAAA DNA 2: TTTTAGTAATACCATAATGGTTGATTTTTT", "binding signal": "2.02 relative normalized absorbance"}
{"binder": "101 (dsDNA) DNA 1: AAAAAAGTCTAAGGACTTATAGCTGTAAAA DNA 2: TTTTACAGCTATAAGTCCTTAGACTTTTTT", "binding signal": "2.37 relative normalized absorbance"}
{"binder": "83 (dsDNA) DNA 1: AAAAAATATGTAGCTGCCGTTACGCTAAAA DNA 2: TTTTAGCGTAACGGCAGCTACATATTTTTT", "binding signal": "2.34 relative normalized absorbance"}
{"binder": "260 (dsDNA) DNA 1: AAAAAAGTATAACGTGTTGTTGACCGAAAA DNA 2: TTTTCGGTCAACAACACGTTATACTTTTTT", "binding signal": "2.33 relative normalized absorbance"}
{"binder": "195 (dsDNA) DNA 1: AAAAAATGGTCGTCGTACTCGTGGTCAAAA DNA 2: TTTTGACCACGAGTACGACGACCATTTTTT", "binding signal": "2.34 relative normalized absorbance"}
{"binder": "92 (dsDNA) DNA 1: AAAAAAAGTCTGCGGCTGCAGGGCGGAAAA DNA 2: TTTTCCGCCCTGCAGCCGCAGACTTTTTTT", "binding signal": "2.36 relative normalized absorbance"}
{"binder": "239 (dsDNA) DNA 1: AAAAAAGTCGTTACACGTATGCGTGCAAAA DNA 2: TTTTGCACGCATACGTGTAACGACTTTTTT", "binding signal": "2.32 relative normalized absorbance"}
{"binder": "36 (dsDNA) DNA 1: AAAAAATTTGGTCTTCGTCCTCGCTTAAAA DNA 2: TTTTAAGCGAGGACGAAGACCAAATTTTTT", "binding signal": "2.17 relative normalized absorbance"}
{"binder": "271 (dsDNA) DNA 1: AAAAAACGTTGAACCTGGGCCTCAACAAAA DNA 2: TTTTGTTGAGGCCCAGGTTCAACGTTTTTT", "binding signal": "2.33 relative normalized absorbance"}
{"binder": "108 (dsDNA) DNA 1: AAAAAAGGCGTCTGACTGTAACTCGTAAAA DNA 2: TTTTACGAGTTACAGTCAGACGCCTTTTTT", "binding signal": "2.35 relative normalized absorbance"}
{"binder": "91 (dsDNA) DNA 1: AAAAAAAGTGGCCGCTAGTCAACTCAAAAA DNA 2: TTTTTGAGTTGACTAGCGGCCACTTTTTTT", "binding signal": "2.25 relative normalized absorbance"}
